± gives the half width of the 95% confidence interval. Where only a bound is given, the exact number is not on record here.

Data set [1] in a line: folding stability dG unfold (combined trypsin and chymotrypsin); higher = more stable. The method in brief:
(§1)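 K50 was inferred by Bayesian fitting of sequencing counts obtained after protease digestion of designed mini-proteins. Unfolding free energy was derived by comparison with a sequence-predicted unfolded-state K50 and a shared folded-state K50, for each protease or both combined. The mini-proteins were under 80 residues, had no cysteine, were carried in a PA-tagged cDNA display construct, and were kept only if AlphaFold2 dimer inter-PAE exceeded 15.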

Data set [2] can be described thus: folding stability dG unfold from chymotrypsin proteolysis; higher = more stable. The method in brief:
as §1

Data set [3] in a line: folding stability dG unfold from trypsin proteolysis; higher = more stable. The method in brief: as §1

Take “SAGPPGQPIKPIDITVKPEENTITIKFGDKNLEIPIPPGVEADIWVYPDHIVITIEFPDGKIVTIVLPFSAG [r5_21_TrROS]”: the “folding stability dG unfold” value in data set [1] turned out to be 4.33 ± 0.26 kcal/mol; in data set [2] it was 4.46 ± 0.19 kcal/mol; in data set [3] it was 3.73 ± 0.31 kcal/mol.

With “SAGPPKKREFEIMIQIPLPPGQSAEELKDLLEIPIRLPDGKTIEIRPRAIEVDPGPGQVTVHYKIEVTDSAG [r5_939_TrROS]”, the “folding stability dG unfold” value worked out at 0.463 ± 0.099 kcal/mol in data set [1], 0.498 ± 0.11 kcal/mol in data set [2] and 0.179 ± 0.079 kcal/mol in data set [3].

On to “SAGPPPVKVTVTADYVIEDGKPIVTYTLTFPDGSTTTVTSDPETLVEWLKQHYPDIDVLNFNSGTAPAASAG [r5_25_JUSTAS]”, for which the “folding stability dG unfold” value in data set [1] turned out to be 3.77 ± 0.13 kcal/mol; in data set [2] it was 4.05 ± 0.047 kcal/mol; in data set [3], 2.78 ± 0.068 kcal/mol.

Consider “SAGPPWEPVPITPEIIDKLADKLNPGFPISLQVYRHPDGRVKISIRNEGSGKEYTLVVDPDGDIEIEPSAGG [r19_70_TrROS]”, for which the entries for the “folding stability dG unfold” value in data set [1], in data set [2] and in data set [3] were 3.4 ± 0.1 kcal/mol, 3.522 ± 0.033 kcal/mol and 3.07 ± 0.19 kcal/mol, respectively.

In the case of “SAGPRPIEIYVDPDGMINIRFPNNGREINIPIPKGAEIEIIELPDDYIVIEIKFGGETREFWIPPEDISAGG [r19_309_TrROS]”, the results for the “folding stability dG unfold” value in data set [1], in data set [2] and in data set [3] were 3.46 ± 0.076 kcal/mol, 3.08 ± 0.064 kcal/mol and 4.04 ± 0.13 kcal/mol, respectively.

As for “SAGPTFEIVSVEEVDGKTYIRIRLPNGRIVTARITEVKRLGPDGKLYIKVEPGMSEEELKALLPPEVLKSAG [r5_462_TrROS_Hall]”, the results for the “folding stability dG unfold” value in data set [1], in data set [2] and in data set [3] were 2.63 ± 0.042 kcal/mol, 2.825 ± 0.02 kcal/mol and 2.29 ± 0.053 kcal/mol, respectively.

As to “SAGPTVRIRFAGEEEIEVEVGEELEIRLPDGSVVRIRVKPDGTVTVTRPDGSEVELEDVDEVEIEVFPASAG [r5_869_TrROS_Hall]”, the results for the “folding stability dG unfold” value in data set [1], in data set [2] and in data set [3] were 3.4 ± 0.2 kcal/mol, 3.21 ± 0.076 kcal/mol and 3.3 ± 0.13 kcal/mol, respectively.

In the case of “SAGPTVRQETFGEKYRIEVEVSPDGTVKVKIVNENGEVTELEGKVEPGKPVVLPFPLDGHVVNVVVLPASAG [r5_237_TrMRF]”, the “folding stability dG unfold” value in data set [1] came to 2.52 ± 0.13 kcal/mol; in data set [2], 2.91 ± 0.06 kcal/mol; in data set [3], 1.54 ± 0.089 kcal/mol.

For the sequence “SAGPVKIQIEPDNGEEFEFRLPPNVSEIETSGDKFIIRFPPGMMFKIEIDEELPPGDTVPIRILDIVPSAGG [r19_274_TrROS]”, the “folding stability dG unfold” value worked out at 1.21 ± 0.17 kcal/mol in data set [1], 1.26 ± 0.15 kcal/mol in data set [2] and 1.33 ± 0.057 kcal/mol in data set [3].

Take “SAGPWIMIPLPPELREIAKKAGMSPDDVETVEIPLKFGDREVKIEVEVMPDDGWIMVRFKSNGKEFMIPSAG [r5_545_TrROS]”: the “folding stability dG unfold” value in data set [1] was found to be 2.38 ± 0.29 kcal/mol; in data set [2] it was 3.22 ± 0.13 kcal/mol; in data set [3], 1.55 ± 0.1 kcal/mol.

For the sequence “SAGPWNIMVYDNGEPLEMIEIKGDEITIPLPPGPVRIAIFNPDDNGFVEEEVTPEDGTIEMKIPKGAKISAG [r5_469_TrROS]”, the results for the “folding stability dG unfold” value in data set [1], in data set [2] and in data set [3] were -0.113 ± 0.38 kcal/mol, 0.207 ± 0.33 kcal/mol and -0.792 ± 0.44 kcal/mol, respectively.

On to “SAGPYVMIRIKWPGGEELSIPIPGAKITDVERDGDHITFMFDSPPAAEDIKEEIEDHFPGLKIEIQPIDSAG [r5_453_TrROS]”, for which the “folding stability dG unfold” value in data set [1] was 0.881 ± 0.14 kcal/mol; in data set [2], 1.17 ± 0.2 kcal/mol; in data set [3], 0.288 ± 0.16 kcal/mol.

Turning to “SAGPYYVRITVSIYYPGNGAPHQHTIPIKGKTLDDIKDEIRDEIRDHGMKMDPGDEVEIQITDIEVYPGSAG [r5_230_TrROS]”, the entries for the “folding stability dG unfold” value in data set [1], in data set [2] and in data set [3] were 1.28 ± 0.075 kcal/mol, 1.55 ± 0.06 kcal/mol and 0.905 ± 0.019 kcal/mol, respectively.

As for “SAGQTIRIDEIYPHPDGFLIKIRYPDGKVHTFPIKPNMPITVDGDTITITFPGGPITIPLENMEIEILPSAG [r5_999_TrROS]”, the “folding stability dG unfold” value amounted to 3.24 ± 0.064 kcal/mol in data set [1], 3.17 ± 0.039 kcal/mol in data set [2] and 3.28 ± 0.069 kcal/mol in data set [3].

With “SAGRIEIDKIEPGKPVRIKIKIEMPDPNGKKRKMDFTRRVRVDPENGMIYIPITMPNGRPIPIMINVKKSAG [r5_743_TrROS]”, the “folding stability dG unfold” value was determined as 0.619 ± 0.29 kcal/mol in data set [1], 0.552 ± 0.43 kcal/mol in data set [2] and 0.313 ± 0.23 kcal/mol in data set [3].

Take “SAGRIEVYQDPNMLRVIEIPLPNGREIVIYRPPGYYHIEIENPNNNKQIPIMIPMEPGDIKKIIKEFINSAG [r5_820_TrROS]”: the “folding stability dG unfold” value was determined as 1.33 ± 0.11 kcal/mol in data set [1], 1.38 ± 0.081 kcal/mol in data set [2] and 1.18 ± 0.046 kcal/mol in data set [3].

On to “SAGRIHVMVFPLDPKDGKWEWVWTFTIDFKPGEKLTLDEIADDIPPKGYMVMIWFTPDTITITIWRRKDSAG [r5_269_TrROS]”, for which the figures for the “folding stability dG unfold” value in data set [1], in data set [2] and in data set [3] were 4.96 ± 0.12 kcal/mol, 5.33 ± 0.082 kcal/mol and 3.87 ± 0.092 kcal/mol, respectively.

On to “SAGRIYVDPNMVVIEIKYPDKPMPIIIPFKDPEDQEMAKELVKKIMRYLRNEGLPVEVEVEVFPPGQPVSAG [r5_823_TrROS]”, for which the “folding stability dG unfold” value in data set [1] is 2.11 ± 0.11 kcal/mol; in data set [2], 2.41 ± 0.026 kcal/mol; in data set [3] it was 1.51 ± 0.026 kcal/mol.

Consider “SAGRKIPIMFTWPNGDPERMEEIAIEFANYLQPNGLPNVTIKIERKPVKDPENGKRRYVYMVTIEVQPPSAG [r5_49_TrROS]”, for which the “folding stability dG unfold” value in data set [1] was 2.44 ± 0.2 kcal/mol; in data set [2], 2.89 ± 0.089 kcal/mol; in data set [3], 1.92 ± 0.043 kcal/mol.

Consider “SAGRLTTELGDVKAEVFRIPNLNLSLVVYEYPTSVRTLLATEHGDTVTIHPLTETPLPLPPLSDLKSLSAGG [r19_328_TrMRF]”, for which the “folding stability dG unfold” value in data set [1] is 0.0233 ± 0.1 kcal/mol; in data set [2], -0.064 ± 0.11 kcal/mol; in data set [3], 0.0381 ± 0.068 kcal/mol.

“SAGSAAIKALLEKHPKPEVIEVTRLPGSGTLVIKVDDEDHVVPTPPGGFTETLTVDENGNVLSVEPHPASAG [r5_329_JUSTAS]”: the “folding stability dG unfold” value in data set [1] is 1.74 ± 0.14 kcal/mol; in data set [2], 1.65 ± 0.064 kcal/mol; in data set [3], 1.79 ± 0.11 kcal/mol.

In the case of “SAGSAEEIAKKLAEELRKAGYEVKVKVVEVEKVGDGKVVVRVEIEVTYYDKNGKPVKKERFELTIVLPSAGG [r19_418_TrROS_Hall]”, the “folding stability dG unfold” value in data set [1] amounted to 4.25 ± 0.19 kcal/mol; in data set [2] it was 4.69 ± 0.27 kcal/mol; in data set [3], 2.99 ± 0.12 kcal/mol.

As for “SAGSALAAALKLKTYTIKITAPDGTVIELTISYHPSDPEAIKEALAKAGYPPEKLKTENPNLETTEVDASAG [r5_430_JUSTAS]”, the “folding stability dG unfold” value in data set [1] was 1.79 ± 0.16 kcal/mol; in data set [2] it was 1.83 ± 0.14 kcal/mol; in data set [3], 1.62 ± 0.071 kcal/mol.

For the sequence “SAGSATVTYDPDTNTVTVTLEGPDTTFTISFPNGEKLEVKATVKPLPDGSYKVLLEVYYPDGSKETFELSAG [r14_675_TrMRF]”, the “folding stability dG unfold” value in data set [1] was more than 6 kcal/mol; in data set [2], 5.16 ± 0.3 kcal/mol; in data set [3], 4.13 ± 0.2 kcal/mol.

As for “SAGSEEEKKAIAEELKEKILKERPELQKKEYTVEVEITPLPDDSIRITVTVTLPSGETETREYVYPNKSAGG [r19_194_JUSTAS]”, the “folding stability dG unfold” value in data set [1] stood at 3 ± 0.24 kcal/mol; in data set [2] it was 2.95 ± 0.21 kcal/mol; in data set [3] it was 2.71 ± 0.26 kcal/mol.

“SAGSITLVFKTPEELEEALKKLAEELGLSEEEVEALKKELEEKFTITYDEETGYVTITLKPELSEEELKSAG [r5_717_TrROS_Hall]”: the “folding stability dG unfold” value in data set [1] turned out to be 3.44 ± 0.24 kcal/mol; in data set [2], 3.71 ± 0.15 kcal/mol; in data set [3], 2 ± 0.13 kcal/mol.

Turning to “SAGSKEALLSDPSFEPVEVEIHLEIEVPGVTPEEAEAIAKELEKEITEELKKKGIKNVKVTVTIRYVERSAG [r5_431_JUSTAS]”, the entries for the “folding stability dG unfold” value in data set [1], in data set [2] and in data set [3] were 2.24 ± 0.071 kcal/mol, 2.49 ± 0.057 kcal/mol and 1.71 ± 0.044 kcal/mol, respectively.
